What is called IC50 is the concentration at which inhibition is half-maximal. Higher therefore signals weaker potency.

In the experiment the target is CA-FN domains of human RPTPζ (amino acid residues 34-410) fused to human IgG1 Fc, purified (human, UniProt P23471 34-410). Description: AlphaScreen competition with biotinylated TNC(Fg).

B1: Fg domain of human tenascin-C (amino acid residues 1975-2201) (domain or fragment)
chain: GLLYPFPKDCSQAMLNGDTTSGLYTIYLNGDKAEALEVFCDMTSDGGGWIVFLRRKNGRENFYQNWKAYAAGFGDRREEFWLGLDNLNKITAQGQYELRVDLRDHGETAFAVYDKFSVGDAKTRYKLKVEGYSGTAGDSMAYHNGRSFSTFDKDTDSAITNCALSYKGAFWYRNCHRVNLMGRYGDNNHSQGVNWFHWKGHEHSIQFAEMKLRPSNFRNLEGRRKRA
B1 had an IC50 of 43 nM.

B2: Fg domain of human tenascin-R (amino acid residues 1129-1358) (domain or fragment)
chain: GRVFPHPQDCAQHLMNGDTLSGVYPIFLNGELSQKLQVYCDMTTDGGGWIVFQRRQNGQTDFFRKWADYRVGFGNVEDEFWLGLDNIHRITSQGRYELRVDMRDGQEAAFASYDRFSVEDSRNLYKLRIGSYNGTAGDSLSYHQGRPFSTEDRDNDVAVTNCAMSYKGAWWYKNCHRTNLNGKYGESRHSQGINWYHWKGHEFSIPFVEMKMRPYNHRLMAGRKRQSLQF
As to B2, the IC50 came to 47 nM.

The record behind these values is article PMC10371798 (2023).
